K0.5 and kcat data for one protein are collected here from paper PMC12723728.

Substrate in this data set: C[S+](CC[C@H](N)C(=O)O)C[C@H]1O[C@@H](n2cnc3c(N)ncnc32)[C@H](O)[C@@H]1O
The data set is described as follows: purified protein. Conditions: co-substrate mGpppAmC RNA 1 μM; 100 nM enzyme; SAM 0.5-6 μM; labelled compound.

B1: CMTR2 (Homo sapiens) (protein)
chain: MSKCRKTPVQQLASPASFSPDILADIFELFAKNFSYGKPLNNEWQLPDPSEIFTCDHTELNAFLDLKNSLNEVKNLLSDKKLDEWHEHTAFTNKAGKIISHVRKSVNAELCTQAWCKFHEILCSFPLIPQEAFQNGKLNSLHLCEAPGAFIASLNHYLKSHRFPCHWSWVANTLNPYHEANDDLMMIMDDRLIANTLHWWYFGPDNTGDIMTLKFLTGLQNFISSMATVHLVTADGSFDCQGNPGEQEALVSSLHYCEVVTALTTLGNGGSFVLKMFTMFEHCSINLMYLLNCCFDQVHVFKPATSKAGNSEVYVVCLHYKGREAIHPLLSKMTLNFGTEMKRKALFPHHVIPDSFLKRHEECCVFFHKYQLETISENIRLFECMGKAEQEKLNNLRDCAIQYFMQKFQLKHLSRNNWLVKKSSIGCSTNTKWFGQRNKYFKTYNERKMLEALSWKDKVAKGYFNSWAEEHGVYHPGQSSILEGTASNLECHLWHILEGKKLPKVKCSPFCNGEILKTLNEAIEKSLGGAFNLDSKFRPKQQYSCSCHVFSEELIFSELCSLTECLQDEQVVVPSNQIKCLLVGFSTLRNIKMHIPLEVRLLESAELTTFSCSLLHDGDPTYQRLFLDCLLHSLRELHTGDVMILPVLSCFTRFMAGLIFVLHSCFRFITFVCPTSSDPLRTCAVLLCVGYQDLPNPVFRYLQSVNELLSTLLNSDSPQQVLQFVPMEVLLKGALLDFLWDLNAAIAKRHLHFIIQREREEIINSLQLQN
B1: the K0.5 came out at 1.3 ± 0.1 µM; the kcat – broadly, the number of substrate molecules converted per active site and unit of time at saturation – turned out to be 0.000944 ± 0.00011 s⁻¹.
